Laboratory results taken from US8492329B2, “Bioactive peptides and methods of using same” (Compugen Ltd., priority 2007, dated 2013).
No end group written: not given here.

Assays:
[1] = target: LGR8 (RXFP2) (Homo sapiens, UniProt Q8WXD0); experiment: pCRE-β-gal reporter assay in HEK-293T cells expressing LGR8; type: cell-based; parameters: expressed in transfected cells; settings: LGR8/pCRE-β-gal HEK-293T; for CRE activation pattern: 0.01 nM-1 μM, FIG. 6A-B
Method: In order to further test the activity of P59C13V (P59) (SEQ ID NO: 6), P59S-Amide (P59S) (SEQ ID NO: 1), P59C13V-Amide (P59 Amide) (SEQ ID NO: 5) and P74C13V (P74) (SEQ ID NO: 10), the following assay was performed. The assay was done to assess the ability of P59C13V (P59) (SEQ ID NO: 6), P59S-Amide (P59S) (SEQ ID NO: 1), P59C13V-Amide (P59Amide) (SEQ ID NO: 5) and P74C13V (P74) (SEQ ID NO: 10) peptides to replace H2 Relaxin or INSL3 activity in stable HEK-293T cell lines expressing the LGR7 (RXFP1) or the LGR8 (RXFP2) receptors, respectively, by assessment of the ability of these peptides to increase cAMP activity in cell lines expressing LGR7 (RXFP1) or LGR8 (RXFP2) respectively, together with pCRE-β-gal. The pCRE-β-gal assay is a standard and well established assay at the Howard Florey Institute (Melbourne, Australia) (Halls M L, Bathgate R A, Summers R J.—Comparison of signaling pathways activated by the relaxin family peptide receptors, RXFP1 and RXFP2, using reporter genes. J Pharmacol Exp Ther. 2007 January; 320(1):281-90.)
The ability of P59C13V (P59) (SEQ ID NO: 6), P59S-Amide (P59S) (SEQ ID NO: 1), P59C13V-Amide (P59Amide) (SEQ ID NO: 5) and P74C13V (P74) (SEQ ID NO: 10) to influence cAMP activity in HEK-293T LGR7/pCRE-β-gal stable or LGR8/pCRE-β-gal transfected cells was tested in parallel to H2 relaxin and INSL3 respectively, according to the protocol described in Halls M L, et al., J Pharmacol Exp Ther. 2007 January; 320(1):281-90.
The experiment was repeated at least three times. The following concentrations of each peptide were tested: 0.01 nM, 0.1 nM, 1 nM, 10 nM, 100 nM, 1 μM.
The results are presented as a percentage of INSL3 activity in LGR8/pCRE-β-gal transfected HEK-293T cells as a function of the concentration (Represented in Log [M]).

[2] = target: T1, LGR7 (RXFP1) (Homo sapiens, UniProt Q9HBX9); experiment: Competition with Europium labelled H2 Relaxin binding to HEK-293T cells expressing LGR7; parameters: expressed in transfected cells; settings: LGR7 HEK-293T; 0.01 nM-10 μM; FIG. 9
T1 sequence (Q9HBX9 1-757): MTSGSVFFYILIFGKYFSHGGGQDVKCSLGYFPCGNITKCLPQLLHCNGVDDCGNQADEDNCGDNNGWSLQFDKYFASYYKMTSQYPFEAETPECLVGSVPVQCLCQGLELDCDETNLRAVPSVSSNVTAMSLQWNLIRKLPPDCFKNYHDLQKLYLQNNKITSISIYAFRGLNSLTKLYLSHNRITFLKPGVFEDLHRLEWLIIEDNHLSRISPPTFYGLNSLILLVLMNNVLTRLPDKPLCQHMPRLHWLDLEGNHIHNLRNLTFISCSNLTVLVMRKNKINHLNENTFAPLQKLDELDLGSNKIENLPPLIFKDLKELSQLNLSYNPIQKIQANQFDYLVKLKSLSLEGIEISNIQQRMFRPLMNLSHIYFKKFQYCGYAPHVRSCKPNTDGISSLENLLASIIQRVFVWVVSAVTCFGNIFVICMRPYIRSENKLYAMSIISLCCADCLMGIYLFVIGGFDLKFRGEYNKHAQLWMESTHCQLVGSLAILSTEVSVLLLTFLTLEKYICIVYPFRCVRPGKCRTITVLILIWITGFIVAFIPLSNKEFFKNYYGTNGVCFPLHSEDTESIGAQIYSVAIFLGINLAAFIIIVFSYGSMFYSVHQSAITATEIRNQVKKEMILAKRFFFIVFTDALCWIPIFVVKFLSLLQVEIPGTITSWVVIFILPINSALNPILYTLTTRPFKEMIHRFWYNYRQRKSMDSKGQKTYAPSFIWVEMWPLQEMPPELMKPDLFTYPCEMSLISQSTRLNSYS
Method: The ability of Peptides P74C13V (SEQ ID NO: 10) and P59C13V (SEQ ID NO: 6) to compete with the binding of known ligands to LGR7 or LGR8 was tested by testing the ability of P74C13V (SEQ ID NO: 10) and P59C13V (SEQ ID NO: 6) to compete with the binding of Europium labelled H2 Relaxin or INSL3 (manufactured by the H. Florey institute) to stable HEK-293T cell lines expressing LGR7 or LGR8 respectively.
HEK-293T cell lines stabelly expressing LGR7 (RXFP1) were treated with Europium labelled H2 Relaxin (manufactured by the H. Florey institute) The cells were then treated with decimal increasing concentrations (0.01 nM, 0.1 nM, 1 nM, 10 nM, 100 nM, 1 μM, 10 μM) of un-labeled H2 Relaxin (as a positive control) and the tested peptides P59C13V (P59) (SEQ ID NO: 6), P59C13V-Amide (P59-Amide) (SEQ ID NO: 5), P59-S-Amide (P59S) (SEQ ID NO: 1) and P74C13V (P74) (SEQ ID NO: 10). The binding results are shown as a percentage of specific binding of the radioactive test H2 Relaxin (where 100% is the baseline radiation level).

LGR8 (RXFP2), sequence (Q8WXD0 whole entry): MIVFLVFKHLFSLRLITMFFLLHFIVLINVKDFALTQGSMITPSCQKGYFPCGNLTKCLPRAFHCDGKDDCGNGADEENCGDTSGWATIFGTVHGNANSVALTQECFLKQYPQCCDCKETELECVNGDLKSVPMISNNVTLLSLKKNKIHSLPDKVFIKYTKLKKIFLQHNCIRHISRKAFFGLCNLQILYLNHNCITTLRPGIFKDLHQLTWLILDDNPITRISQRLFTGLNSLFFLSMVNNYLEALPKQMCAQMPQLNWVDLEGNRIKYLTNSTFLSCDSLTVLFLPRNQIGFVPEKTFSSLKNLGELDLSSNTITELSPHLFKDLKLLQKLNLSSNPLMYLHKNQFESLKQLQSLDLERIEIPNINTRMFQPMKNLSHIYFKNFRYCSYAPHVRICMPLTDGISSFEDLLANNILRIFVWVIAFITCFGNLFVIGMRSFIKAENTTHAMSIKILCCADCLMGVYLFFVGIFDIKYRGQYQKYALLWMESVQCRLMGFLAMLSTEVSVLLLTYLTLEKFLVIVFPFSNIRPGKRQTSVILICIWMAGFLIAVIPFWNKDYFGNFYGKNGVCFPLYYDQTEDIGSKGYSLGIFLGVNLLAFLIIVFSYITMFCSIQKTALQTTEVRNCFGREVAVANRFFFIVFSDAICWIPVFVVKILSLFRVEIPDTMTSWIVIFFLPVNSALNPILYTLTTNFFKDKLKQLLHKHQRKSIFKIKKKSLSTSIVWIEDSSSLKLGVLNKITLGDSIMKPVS

CRE activation pattern [1] | competition for binding of Europium-H2 Relaxin [2] | CRE activation relative to INSL3 activity ([1]; FIG. 6B) | Substance
less pronounced | no competition |  | AYAAFSV-Amide (AYAAFSV-NH2) [Peptide P59-S-Amide]
 | no competition | ~25 % of INSL3 | GQKGQVGPPGAAVRRAYAAFSV [Peptide P59C13V]
very weak effect | no competition |  | GQKGQVGPPGAAVRRAYAAFSV-Amide (GQKGQVGPPGAAVRRAYAAFSV-NH2) [P59C13V-Amide]
bell shaped response | no competition |  | GQKGQVGPPGAAVRRAYAAFSVGRRAYAAFSV-OH [Peptide P74C13V]
